{
  "source": "paper PMC2878758",
  "proteins": {"B1": {"name": "Mss116p (Saccharomyces cerevisiae S288C) (protein)", "chain": "NHITWAVSRRLYNDGNRDQRNFGRNQRNNNSNRYRNSRFNSRPRTRSREDDDEVHFDKTTFSKLIHVPKEDNSKEVTLDSLLEEGVLDKEIHKAITRMEFPGLTPVQQKTIKPILSSEDHDVIARAKTGTGKTFAFLIPIFQHLINTKFDSQYMVKAVIVAPTRDLALQIEAEVKKIHDMNYGLKKYACVSLVGGTDFRAAMNKMNKLRPNIVIATPGRLIDVLEKYSNKFFRFVDYKVLDEADRLLEIGFRDDLETISGILNEKNSKSADNIKTLLFSATLDDKVQKLANNIMNKKECLFLDTVDKNEPEAHERIDQSVVISEKFANSIFAAVEHIKKQIKERDSNYKAIIFAPTVKFTSFLCSILKNEFKKDLPILEFHGKITQNKRTSLVKRFKKDESGILVCTDVGARGMDFPNVHEVLQIGVPSELANYIHRIGRTARSGKEGSSVLFICKDELPFVRELEDAKNIVIAKQEKYEPSEEIKSEVLEAVTEEPEDISDIVISLISSYRSCIKEYRFSERRILPEIASTYGVLLNDPQLKIPVSRRFLDKLGLSRSPIGKAMFEIRDYSSRDGNNKSYDYDDDSEISFRGNKNYNNRSQNRDYDDEPFRRSNNNRRSFSRSNDKNNYSSRNSNIY"}, "B2": {"name": "Mss116p (Saccharomyces cerevisiae S288C; S305A) (protein)", "chain": "NHITWAVSRRLYNDGNRDQRNFGRNQRNNNSNRYRNSRFNSRPRTRSREDDDEVHFDKTTFSKLIHVPKEDNSKEVTLDSLLEEGVLDKEIHKAITRMEFPGLTPVQQKTIKPILSSEDHDVIARAKTGTGKTFAFLIPIFQHLINTKFDSQYMVKAVIVAPTRDLALQIEAEVKKIHDMNYGLKKYACVSLVGGTDFRAAMNKMNKLRPNIVIATPGRLIDVLEKYSNKFFRFVDYKVLDEADRLLEIGFRDDLETISGILNEKNSKSADNIKTLLFAATLDDKVQKLANNIMNKKECLFLDTVDKNEPEAHERIDQSVVISEKFANSIFAAVEHIKKQIKERDSNYKAIIFAPTVKFTSFLCSILKNEFKKDLPILEFHGKITQNKRTSLVKRFKKDESGILVCTDVGARGMDFPNVHEVLQIGVPSELANYIHRIGRTARSGKEGSSVLFICKDELPFVRELEDAKNIVIAKQEKYEPSEEIKSEVLEAVTEEPEDISDIVISLISSYRSCIKEYRFSERRILPEIASTYGVLLNDPQLKIPVSRRFLDKLGLSRSPIGKAMFEIRDYSSRDGNNKSYDYDDDSEISFRGNKNYNNRSQNRDYDDEPFRRSNNNRRSFSRSNDKNNYSSRNSNIY"}, "B3": {"name": "Mss116p (Saccharomyces cerevisiae S288C; Q412A) (protein)", "chain": "NHITWAVSRRLYNDGNRDQRNFGRNQRNNNSNRYRNSRFNSRPRTRSREDDDEVHFDKTTFSKLIHVPKEDNSKEVTLDSLLEEGVLDKEIHKAITRMEFPGLTPVQQKTIKPILSSEDHDVIARAKTGTGKTFAFLIPIFQHLINTKFDSQYMVKAVIVAPTRDLALQIEAEVKKIHDMNYGLKKYACVSLVGGTDFRAAMNKMNKLRPNIVIATPGRLIDVLEKYSNKFFRFVDYKVLDEADRLLEIGFRDDLETISGILNEKNSKSADNIKTLLFSATLDDKVQKLANNIMNKKECLFLDTVDKNEPEAHERIDQSVVISEKFANSIFAAVEHIKKQIKERDSNYKAIIFAPTVKFTSFLCSILKNEFKKDLPILEFHGKITANKRTSLVKRFKKDESGILVCTDVGARGMDFPNVHEVLQIGVPSELANYIHRIGRTARSGKEGSSVLFICKDELPFVRELEDAKNIVIAKQEKYEPSEEIKSEVLEAVTEEPEDISDIVISLISSYRSCIKEYRFSERRILPEIASTYGVLLNDPQLKIPVSRRFLDKLGLSRSPIGKAMFEIRDYSSRDGNNKSYDYDDDSEISFRGNKNYNNRSQNRDYDDEPFRRSNNNRRSFSRSNDKNNYSSRNSNIY"}, "B4": {"name": "Mss116p (Saccharomyces cerevisiae S288C; R245E) (protein)", "chain": "NHITWAVSRRLYNDGNRDQRNFGRNQRNNNSNRYRNSRFNSRPRTRSREDDDEVHFDKTTFSKLIHVPKEDNSKEVTLDSLLEEGVLDKEIHKAITRMEFPGLTPVQQKTIKPILSSEDHDVIARAKTGTGKTFAFLIPIFQHLINTKFDSQYMVKAVIVAPTRDLALQIEAEVKKIHDMNYGLKKYACVSLVGGTDFRAAMNKMNKLRPNIVIATPGELIDVLEKYSNKFFRFVDYKVLDEADRLLEIGFRDDLETISGILNEKNSKSADNIKTLLFSATLDDKVQKLANNIMNKKECLFLDTVDKNEPEAHERIDQSVVISEKFANSIFAAVEHIKKQIKERDSNYKAIIFAPTVKFTSFLCSILKNEFKKDLPILEFHGKITQNKRTSLVKRFKKDESGILVCTDVGARGMDFPNVHEVLQIGVPSELANYIHRIGRTARSGKEGSSVLFICKDELPFVRELEDAKNIVIAKQEKYEPSEEIKSEVLEAVTEEPEDISDIVISLISSYRSCIKEYRFSERRILPEIASTYGVLLNDPQLKIPVSRRFLDKLGLSRSPIGKAMFEIRDYSSRDGNNKSYDYDDDSEISFRGNKNYNNRSQNRDYDDEPFRRSNNNRRSFSRSNDKNNYSSRNSNIY"}, "B5": {"name": "Mss116p (Saccharomyces cerevisiae S288C; T307A) (protein)", "chain": "NHITWAVSRRLYNDGNRDQRNFGRNQRNNNSNRYRNSRFNSRPRTRSREDDDEVHFDKTTFSKLIHVPKEDNSKEVTLDSLLEEGVLDKEIHKAITRMEFPGLTPVQQKTIKPILSSEDHDVIARAKTGTGKTFAFLIPIFQHLINTKFDSQYMVKAVIVAPTRDLALQIEAEVKKIHDMNYGLKKYACVSLVGGTDFRAAMNKMNKLRPNIVIATPGRLIDVLEKYSNKFFRFVDYKVLDEADRLLEIGFRDDLETISGILNEKNSKSADNIKTLLFSAALDDKVQKLANNIMNKKECLFLDTVDKNEPEAHERIDQSVVISEKFANSIFAAVEHIKKQIKERDSNYKAIIFAPTVKFTSFLCSILKNEFKKDLPILEFHGKITQNKRTSLVKRFKKDESGILVCTDVGARGMDFPNVHEVLQIGVPSELANYIHRIGRTARSGKEGSSVLFICKDELPFVRELEDAKNIVIAKQEKYEPSEEIKSEVLEAVTEEPEDISDIVISLISSYRSCIKEYRFSERRILPEIASTYGVLLNDPQLKIPVSRRFLDKLGLSRSPIGKAMFEIRDYSSRDGNNKSYDYDDDSEISFRGNKNYNNRSQNRDYDDEPFRRSNNNRRSFSRSNDKNNYSSRNSNIY"}},
  "data": [
    {"substrate": "Nc1ncnc2c1ncn2[C@@H]1O[C@H](COP(=O)(O)OP(=O)(O)OP(=O)(O)O)[C@@H](O)[C@H]1O", "test": "ATPase assay, free ADP versus time, initial velocities", "format": "biochemical, Saccharomyces cerevisiae", "details": "37 °C, saturating aI5β intron RNA transcript", "units": {"Km": "µM"}, "values": [
      {"protein": "B1", "Km": "167 ± 20", "kcat": "0.496 ± 0.0603 s⁻¹"},
      {"protein": "B2", "Km": "162 ± 16", "kcat": "0.322 ± 0.142 s⁻¹"},
      {"protein": "B3", "Km": "177 ± 33", "kcat": "0.393 ± 0.0933 s⁻¹"},
      {"protein": "B4", "Km": "554 ± 153", "kcat": "8.18 ± 0.08 ^e^, ^f"},
      {"protein": "B5", "Km": "180 ± 4", "kcat": "0.061 ± 0.0045 s⁻¹"}
    ]}
  ]
}
